2 molecules from patent US20220306744A1 (CRESCENDO BIOLOGICS, published 2022) can be followed below.

The target of assay [1] is T1, human PD-1 expressed on cells (CHO TREX human PD1 cell line, full-length human PD-1 sequence) (human, UniProt Q15116 21-288).
T1 construct: Also used for human PD-1 on Jurkat reporter cells, on PathHunter cells and on PHA-stimulated human CD4+ T cells; also called CHO human PD1 cells; CHO human PD-1 cells
As to the kind of experiment: flow cytometry, PHA-stimulated human CD4+ T cells, Donor 2. As to the method:
Binding of monovalent single domain antibodies and multivalent binding agents to T cells was measured using flow cytometry. Peripheral blood mononuclear cells (PBMCs) were isolated from human blood by density gradient centrifugation then CD4+ T cells purified using a negative selection isolation kit according to the manufacturer's protocol (Miltenyi Biotech cat no 130-096-533). T-cells were stimulated with 2.5 μg/ml PHA for 3 days in RPMI media supplemented with 10% FBS, 2 mM Glutamine, 1× Pen/Strep. Cells were transferred into 96 well plates (75000 per well), blocked for 10 mins with PBS/1% BSA, then incubated with serially diluted VH in staining buffer (PBS/1% BSA) for 1 hour at 4° C. Cells were washed with staining buffer by centrifugation then incubated with 10 μg/ml biotinylated Anti His antibody for 40 mins at 4° C. Cells were washed again then stained with Streptavidin Alexa Fluor-488 (10 μg/ml) and 1:5000 diluted Live Dead near IR stain (Molecular Probes cat no. L10119) for 30 mins at 4° C. After further washing cells were fixed and fluorescence measured by flow cytometry.
In general terms: A flow cytometer gives signals particle by particle.

Assay [2] deals with T1, human PD-1 expressed on cells (CHO TREX …). As to the kind of experiment: epitope competition assay on CHO human PD1 cells (labelled VH not specified) after 7 days in mouse serum. As to the method: (§1) Serum stability of VH and multivalent VH constructs was assessed by measurement of their activity following incubation for 0, 1, 4 or 7 days both in mouse (Sigma M5905) and human serum. […] Minimal loss of activity was observed following incubation with serum.

Assay [3] shares this target. Briefly: epitope competition assay on CHO human PD1 cells (labelled VH not specified) after 7 days in human serum. The method, then:
as §1

For assay [4] the target is unchanged. Briefly: epitope competition assay on CHO human PD1 cells (labelled VH not specified) after 1 day in human serum. As to the method: as §1
For assay [5] the target is unchanged. Briefly: FMAT binding to CHO human PD-1 cells.
Assay [6] addresses T2, recombinant human PD-1 Fc chimera (human, UniProt Q15116 25-167).
T2 construct: Bought protein (R&D 1086-PD in the HTRF assay); also called human PD-1-hu Fc; huPD-1Fc; not shown: human Fc
Briefly: HTRF binding assay, 2 nM recombinant PD1, anti His-D2 and anti human-Fc cryptate. The method, then: (§2) Purified VH were tested for their ability to bind to human PD1 (R&D Systems cat no. 1086-PD), cynomolgus PD-1 (Acro Biosystems cat no. PD-1-C5254) and mouse PD1 (R&D Systems cat no. 1021-PD) in an HTRF Binding assay format. All reagents and serially diluted VH were prepared in assay buffer containing PBS, 0.1% BSA and 0.4M Potassium Fluoride. Samples or assay buffer (non-specific binding) were incubated with 2 nM human/cynomolgus or mouse PD1, 1 nM Anti human-Fc Cryptate PAb (Cisbio cat. no. 61HFCKLB) and 30 nM anti His-D2 (CisBio cat no 61HISDLA) in black 384-shallow well assay plates for a minimum of 3 hours at room temperature. Time-resolved fluorescent emission at 620 nm and 665 nm was measured following excitation at 337 nm on the BMG PHERAstar plate reader. The HTRF ratio were calculated ((665 nm emission/620 nm emission)*10000) and the data corrected for (non-specific binding) to give the specific binding signal.
For orientation: Time-resolved FRET reads energy transfer from a long-lived donor to a nearby acceptor.

In assay [7] the target is T3, cynomolgus PD-1 recombinant protein (Acro Biosystems cat no. PD-1-C5254) (cynomolgus).
T3 construct: Bought protein; also called cyno PD1
The assay is described as above. The method, then: as §2

For assay [8], the target named is T2, recombinant human PD-1 Fc chimera. As to the kind of experiment: SPR Biacore T200, single cycle kinetics, human PD-1-hu Fc amine coupled to CM5, 1:1 model. The method, then:
Binding kinetics of certain humabodies binding to human PD-1-hu Fc were measured by surface plasmon resonance (SPR) technology using Biacore T200 instrument (GE Healthcare). Recombinant human PD-1-hu Fc was immobilized by standard amine coupling to CM5 sensors chip (GE Healthcare) using 0.1 mg/ml solution of antigen in 10 mM sodium acetate at pH 5.5. For the reference flow cell, a blank immobilisation was carried out. Single cycle kinetics assays were used to study the interaction, a five point, three-fold dilution series of each Humabody® VH was made with a top concentration of 30 nM. The binding kinetics were followed by flowing the Humabody® VH over the chip surface in HBS EP+ buffer at a flow rate of 30 μl/min. The contact time for each of the association steps was 180 seconds and the dissociation step was varied between 1200-3600 seconds. The data was fitted to a 1:1 binding model after double reference subtraction using the Biacore T200 Evaluation software.
For orientation: In SPR one partner is held on a chip, and binding of the other changes the refractive index at the surface.

Assay [9] addresses T4, mouse PD-1 protein (R&D Systems cat no. 1021-PD) (mouse, UniProt Q02242 25-167).
T4 construct: Bought protein
T4 sequence (looked up): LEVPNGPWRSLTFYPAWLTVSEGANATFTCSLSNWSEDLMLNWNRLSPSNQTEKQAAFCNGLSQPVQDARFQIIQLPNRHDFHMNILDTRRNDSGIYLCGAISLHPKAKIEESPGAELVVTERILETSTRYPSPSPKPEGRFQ
Briefly: HTRF binding assay, 2 nM mouse PD1. The method, then: as §2

T1 sequence (Q15116 21-288): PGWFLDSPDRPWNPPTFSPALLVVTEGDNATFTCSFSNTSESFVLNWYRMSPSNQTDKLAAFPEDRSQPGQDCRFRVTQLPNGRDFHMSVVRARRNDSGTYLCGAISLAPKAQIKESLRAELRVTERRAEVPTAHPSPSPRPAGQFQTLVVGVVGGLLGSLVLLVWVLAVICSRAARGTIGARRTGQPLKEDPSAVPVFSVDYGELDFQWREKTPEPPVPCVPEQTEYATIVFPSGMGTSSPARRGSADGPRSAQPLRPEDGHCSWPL
T2 sequence (Q15116 25-167 limits assumed, change not shown): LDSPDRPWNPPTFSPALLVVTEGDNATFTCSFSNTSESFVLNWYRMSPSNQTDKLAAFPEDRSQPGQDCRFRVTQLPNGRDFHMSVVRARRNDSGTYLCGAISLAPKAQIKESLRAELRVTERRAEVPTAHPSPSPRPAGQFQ

B1: 1.92b-4GS-1.39a (other)
chain: EVQLVESGGGLVKPGGSLRLSCAASGFTFSDESMTWMRQAPGKGLEWVSYISSGGGVKFYADSVKGRFTISRDNAKNSLYLQMNSLRAEDTAVYYCAREAPLRLGESPHDAFDISGQGTMVTVSSGGGGSGGGGSGGGGSGGGGSEVQLVESGGGLVQPGRSLRLSCAASGFTFDDYALHWVRQAPGKDLEWVSGISWNGGSYGYADSVKGRFTISRDNAKNSLYLQMNSLRAEDTALYYCVREKGPGLTGSTADYYGLDAWGQGTMVTVSS
notes: Biparatopic VH-linker-VH; built from its parts here because it is not clear whether 1112 is the protein or the nucleic acid
B1: the EC50 in [1] stood at 0.6 nM; in assay [5] it was 0.2 nM; in assay [6], 2.1 nM; in [7], 3.7 nM. Also, the results for the IC50 in assay [2], in assay [3] and in assay [4] were 1.8 nM, 1 nM and 0.9 nM, respectively. Also, the Kd in assay [8] worked out at 0.012 nM. Moreover, the off-rate constant (koff) in assay [8] was determined as 6.5e-06 s⁻¹. In assay [8], the association rate constant (kon) worked out at 510000 M⁻¹ s⁻¹. In addition, the binding result in [9] was “no binding”.

B2: 1.92b-4GS-1.62a (other)
chain: EVQLVESGGGLVKPGGSLRLSCAASGFTFSDESMTWMRQAPGKGLEWVSYISSGGGVKFYADSVKGRFTISRDNAKNSLYLQMNSLRAEDTAVYYCAREAPLRLGESPHDAFDISGQGTMVTVSSGGGGSGGGGSGGGGSGGGGSEVQLVESGGGVVRPGGSLRLSCAASGFTFDDYAMSWVRQAPGKGLEWVSGITWNAGSTGYADSVKGRFTISRDNAKNSLYLQMNSLRAEDTALYYCVRDKYSYAWSYDDFDIWGQGTMVTVSS
notes: Biparatopic VH-linker-VH; also called 1.92-4GS-1.62a; 1.92b-4gs-2.12a
Take B2: the half-maximal effective concentration (EC50) in assay [1] stood at 0.4 nM; in assay [5], 0.2 nM; in assay [6], 2.1 nM; in assay [7], 3.9 nM. Further, the results for the concentration for half-maximal inhibition (IC50) in [2], in assay [3] and in assay [4] were 2 nM, 1.1 nM and 1.3 nM, respectively. The Kd in assay [8] stood at 0.0097 nM. Moreover, the off-rate constant (koff) in [8] came to 4.3e-06 s⁻¹. Moreover, the on-rate (kon) in [8] was found to be 440000 M⁻¹ s⁻¹. For the same molecule, in assay [9], the binding result is on record as “no binding”.

Broadly, the EC50 is the midpoint of the concentration-response curve. The IC50 is the concentration needed to halve the response being measured. Read a low IC50 as greater potency. For orientation: Kd means the equilibrium constant for the complex coming apart. For orientation: koff means the rate constant with which the complex falls apart. By kon is commonly meant the rate constant with which the complex forms.
